How the values were obtained:
Assay in all cases: SPR
E4 = molecular target: E4
E2 = molecular target: E2
C11 = molecular target: C11

- Kd (E4): 2.48 µM
- Kd (E2): 4.74 µM
- Kd (C11): 22.8 µM
B1: rituximab, galactosylated afucosylated (G2) glycoform (antibody)
chain 1: QVQLQQPGAELVKPGASVKMSCKASGYTFTSYNMHWVKQTPGRGLEWIGAIYPGNGDTSYNQKFKGKATLTADKSSSTAYMQLSSLTSEDSAVYYCARSTYYGGDWYFNVWGAGTTVTVSA
chain 2: QIVLSQSPAILSASPGEKVTMTCRASSSVSYIHWFQQKPGSSPKPWIYATSNLASGVPVRFSGSGSGTSYSLTISRVEAEDAATYYCQQWTSNPPTFGGGTKLEIK
modifications: N-linked glycan on Asn297: G2 (galactosylated, no core fucose)

— PMC9860306 (2022)
